Target: recombinant ScCD8α extracellular IgSF V domain (Ser20-Met163) (small-spotted catshark (Scyliorhinus canicula))
Assay: native gel or EMSA; PAGE under non-reducing conditions of purified recombinant ScCD8α; Tris-Gly buffer pH 4.4, ice-water bath, 120 V, 2 h; band of approx. 32 kDa against approx. 16 kDa in reducing SDS-PAGE

- stoichiometry N: 2
Substance: recombinant ScCD8α extracellular IgSF V domain (Ser20-Met163) (domain or fragment)

— publication PMC10140343
